B1: GS1869: dsRNA trigger SEQ ID NO 166; gene target General alpha-glucoside permease (nucleic acid)
chain: CGGCCCCATCGAACCATACTTTTTGCAAAAAGATGGCATCGCATAGAATTGAGCAAGCAAGAGATTATCGTAACCTTCCATAATAATACCAGTTGAGATAGCAACACTATAAACAGCAGCTGGCCACCACAATTTTAGAGCTTCGTTGACAGTCATATTCTTTTCAAGCTCTTCCGCACGATGGGCACCCTGAGTGGTATAGTACTGACTCTTTTCCAAAGAAGGAGCTCGGCCAATGTCCTCCTCATGCTTGGCAGTAGTTTCAAGAATGGACTTGTCGATAATAGACATTTTGAGAGTTGAGAAGTCAAAAAAATTTTGAAGTAAAGATCAGACTAAAGGTGAGTTTGGGGATTTAAAAAAAGAATATTAGGGTAAGGTTATGATTGAGTTCACAAGGGAATAGGTTTTCTAGAAAGAGCATGAAGGAAAGACATAAAACCTGAGAGTGATATTTGGATAATTTTGAATTCCATCGTCAACAGCTTCGGGAGACAAGTCTTTATAGAATTCTGAT
B2: GS1876: dsRNA trigger SEQ ID NO 210; gene target Uncharacterized transcriptional regulatory protein YKL222C (nucleic acid)
chain: CGCGTTCATAAAATATATCTTCATAATCAGCGTATTTAGGTGAAAGTGTAGTAGCCAATGTCCACATGGCATAGCATAGACAAATTGGAGGACGGGTCTGAATTGGACGTTCCAAAGACATGTAAAACCGGGCTTGATGTATGATGGGCATTGAAGGGTGATAGAGAGTGAAGTAGATATGATATAATTCTTTAATCATATAATCAGGCGGTAATGGTTCTTGAAGACCTAAGCTTAGTAGCTCTTTATTGATATTTGATGTAGTTTCTTTAGGCATCTGGGAGAAGCCTGAAATAGGTGGCGACGTTTCAATGGATGTAAGAAGAGGCCTACCATCAATTGCCAAATTCAAATCTATACCCATATTCCAATTTCTTTCGAGCCGGGGAGCTGCAGCATCGGGACTTATGATATCGCATTTTCCTTCCGAGTTGAGTCGAGTCTCCAATTGAGCTAGCCTAGCTTCAATTTCTTTTTCTTT
B3: GS1873: dsRNA trigger SEQ ID NO 153; gene target Probable serine/threonine-protein kinase fhkC (nucleic acid)
chain: CACATCGAGATATAAAACCCGAAAATATACTTCTCATGAATAGAACTCCTACTATTAAATTAGGTGATTTTGGCTTGGCCAAGATCGTTGGTGAGGAATCATTCACAACAAGCTTATGTGGAACACCCAGTTATGTTGCACCAGAGATCCTTGAAGACTCAGATAATCGGCGTTACAATCGAGCTGTTGATATTTGGGCTCTAGGTGTTGTTCTTTACATTTGCCTCTGTGGCTTCCCGCCATTCTCTGATGAATTGACCAGTAATGATTATCCTTACACTCTTGTCCAGCAGATTAAAATTGGTCAGTTCGACTTCCCATCGCCATATTGGGATAATATAGGAGACTCAGCTCTTGACCTCATTGACAAAATGTTAACAGTAGATGTTAACAAACGCATTAATATTGATCAATGTCTTGAACATCCATGGCTAACTCAAAGAGAATCAACGACTTTGCCAGGTGATTACTCTGAAGTTCTTGACGAACTT
B4: GS1870: dsRNA trigger SEQ ID NO 170; gene target Myosin-24 (nucleic acid)
chain: ATTTCTCATTCGCGTAGTTGATACAGAATTGCTCGAATGAGTTTTTTGCAAAGTGTTCGAATCCATAAATATCTAAAACTCCTATAAATGACTTGACACGGCTTAAGACTTCTTCAGCAGCCAACGCATAATTGATATTTTCAACAAGCCAGTCAAAAAGACTTGAATAAACAAATTTAGCGACCGAATCTCGAACAACAATGGCTTGCTGTTGGCTTAAGCTACTAACGACTTTATCTCCCCGGGTAATTAATTGCTTCTTGACTGTCCATCTAGCAAATTCCACCGGATCAATGCCCAAAATTGAAGCAGCAATCTCTAGAGAAGGCTCATTAGGAGTAAGTGAAGATTCATTTCTTGTGGCAGTAATCTTAACATTTCCAAGATGTAGTAATGCTGCAAGTATTTTAAATATTTCGGTCTGCTGATCCTGTTTGACTCCAATTGTTGCTAGGGACTTTTTGAGTGCTTCGAATTCGGCTTTATCATCAACTCCATCTATTGAAGGTGA
B5: GS1865: dsRNA trigger SEQ ID NO 183; gene target Protein transport protein SEC31 (nucleic acid)
chain: TTGAGCTTCTGGGTGTTTTGTAAGAGAGTTTGTGTTAAATAGTGTCTGTATAGAAATTTTGCCATCAAAAGACGCAGTTGCAGAAAGTGCTGGATTATGAGGATGAAATCGAGTCTGAAAGGTCCAGTTTGTAGCTTCAGGAAATTCTCCCAGGAGTTCTCCAAGCTGTGGGTTCCATAAGATAGTTCTATTATCTTTGCCACATGATAACAGCAAATTGCTGTCTTGTTGACACCATGAGATTGATAAAATTCCCTGATTATGGCCTTGTAATGTACATTCTGGTGCATTGGAATTTCGTAAATCCCAAAGAAGAATAACTGGTTTTGTATCATCAGGTGTTGCTGTTAGTAGCTTCGTTGAATTTTCTGGATCCCAAGCAATAGCTCCAACAGCTTTACGATTGTTATTCAAAGTCAATGACGCTTTTTTGGTTTTTAAGTCCCACACTGTAACAAATCCTCCAGTTCCACCAGTAGCCAAAATATGAGGAACTTTCCTATTCCAGGCAACACATTCAAGGTCAT
B6: GS1868: dsRNA trigger SEQ ID NO 177; gene target Glycine-rich RNA-binding protein 4, mitochondrial (nucleic acid)
chain: TGCCCCATGAGAGACCGCCAATAAAGAGTTTAGGCATTCTGTATGTTAATTTTTATCCTCGCGAACCTGGTATAAAGTCTTAATCTCCGCGTGCATCCTTGAATAAAATGTGACAACGCCATCGAGTTTGAGAGGGAGAGAGAAAGTGGATACGGAACAGTTAAAGAAAAGTACATCGGGATATAACAAAACCTCCGTGTAGCATACAAATGAGGGGACGATGAATATATTTGTTTGCTTGGTGAACAGGCCGGGGAGGATTGGGATGAAGTAATGTTAGTACACACTGTCAGAGAACTAACGAACTTCTAGTGAGTTGCTCAAGAAGAGCAAAGTGCTGCGTTTATAGGGAGACCTGATGAACTTTATTAATTCGGTTTGGAGGAGCAATTTTTATAATGGACTGGAGTAACCGATCAGTCAATTTCGTGATAGAACTATTCTTCCGCAAATTGAGACGCAAAAGCTCTCTGATTGTGATGACAAGAGTTTTGCGGGTCTCAATAAAGGAATTGATGTTT
B7: GS1874: dsRNA trigger SEQ ID NO 120; gene target eka-like_protein (nucleic acid)
chain: CTAGAGCAGCCACGTGTAGCATGAAACCCATGACAACGTTTGCATTGTTGTATTGGTTGGCATGGTTTGTACAGTATAGCGACTCCTGATTCGTCGAATAGTCGGAATCCGGGTCATGGAGCTTGTTCTCGGGAAAAATGTGCCAGCCAAGAGCGATGTGGAGCACCAGAACGAGTCTTACCATGTACCCTAACCATCTTAGGCGCAAAGTTAGTGACTTTGATAATTTCGGCTACAAGGTTAGTATCGTCGACTGTCACACTTCCACTAGAAGTTTGACGGGCAACGGGAACAGTTGCAATACGATATGTAATAAGATCAGACGCCGGTTCTAGCTTGGCACCCTGAAAAGATATTCTATCACTGTCATTTAGTAGCTTTTGCCTTATCTCCTTTTCTTTGATAGTAAGTGCGAAGCCAGTGGGGGTTCGAGCGATGAGCGTCACATCAGATGGTACACAATTTAGATTTTTGCACAATATTT
B8: GS1867: dsRNA trigger SEQ ID NO 126; gene target hypothetical_protein_BGT96224_Ac30495 (nucleic acid)
chain: AAACCGAAATCTACGACAGGTAAAGCATCACGCAATATAACGGCGAAAGCCCACCTGCTATCACCTACTCTCAACGTCCTACGAAAAGATGTTGTTTTCGAGAAAGCGCTCAGTGACATGCATGGCTCTTCCGATAAATACCTAGATAAAGACTCTAGCATGGAAATTAATATAGGTGATGATATCAGCGAGGGGTCGAATGCGGATCCCTTTGCAGAAGAACTCCCCACGCCATCAATAGCGCCAGATACTGCGGTAGCTACCACACTTAACTTAGCACATGGACAGGACGTGAAAGATAATCACAATGCGGCTAGTCTCATGGATGCAATCAAAGGCCTACTAGACTTGACAAATGATTACTTAAAAAATCTTGAAGCACATCACCCAGGAGTTGGGGCAGACTTCTTAGCGCTTCTAGCGGACGGAGCCTCCCGAGCTATGCGCGGAGAGCGAGTTTATTCTAATACATCAAAAGTATGCGAAGGTAGAAAACAAGGAACACAGGCAACATGGACTGA
B9: GS1866: dsRNA trigger SEQ ID NO 163; gene target Proline-rich protein LAS17 (nucleic acid)
chain: ATATCGGGAGGGGTGGCGGTAATGAGGAAGGCTCTTGAGCTGCTATGAGAGATGGTGATGATTGTGCCTGATGTACTGGAAGTAATGGTAGTGATGATGTTTGAGTAACACGAAGAGATGTTGGCGATGGAGCTGGAGAAACTGAGGGATTTTTTGGTATTTGAGAGACTGTGAAAGATTGAGGTTGTGGACTATTTGGCTCTCTATTCTTTTCACAGTCTCGAGTAGTTATTTGAACACTAGGACGTAACGAGGAAGGAGGCAAAGGAGGTGTTGCTGATGCAGATACTATCGGAATTTTTGGAGGTAATTGGGGAGGAGGGAGATGCTCACTTTTAGCAAGAGGGGTTGTGACTTGGGAAGAACTTGTATGAAAAACACGAGTTAAAGGTGGTATTGTTTCACGTGGTGGTATTAAAGGCCCCGCACGATGTGAAATAAAAGATCCAGTGTTTTTCTCACCTGAAAAAGGTGGTGGTACGTTGAATTTAGAGACGCCCGATTCCGAATTTTCTTTAGAATTTTT

Test system: E. necator
Experiment: Leaf disc assay, dry inoculum (settling tower), decrease in disease severity / hyphal growth (Example 2)
Details: decrease in disease severity (hyphal growth) relative to untreated control, value ± SE; for % decrease =/− SE TP1: time point 1 (untreated control hyphal growth ≥50%); for % decrease =/− SE TP2: time point 2

Row | Molecule | % decrease =/− SE TP1 [%] | % decrease =/− SE TP2 [%]
1 | B1 | 21 ± 7 | 17 ± 7
2 | B2 | 20 ± 6 | 10 ± 8
3 | B3 | 4 ± 4 | 
4 | B4 | 11 ± 5 | 13 ± 8
5 | B5 | 5 ± 6 | 3 ± 10
6 | B6 | 1 ± 6 | 
7 | B7 | 25 ± 4 | 14 ± 5
8 | B8 | 7 ± 4 | 
9 | B9 | 8 ± 5 | 13 ± 7
